{"source": "paper PMC3080401", "about": "“Oligomerization of the E. coli Core RNA Polymerase: Formation of (α2ββ'ω)2–DNA Complexes and Regulation of the Oligomerization by Auxiliary Subunits”", "key": {"[1]": {"target": "RNA polymerase core enzyme (alpha2 beta beta' omega);NusA (Escherichia coli;Escherichia coli, UniProt P0A7Z4;P0A8V2;P0A8T7;P0A800;P0AFF6 1-329;1-1342;1-1407;1-91;1-495, |)", "assay": "EMSA; 160 nM core, NusA titration; tandem core-DNA complex dissociated to single copy; EMSA buffer D (1x): 20 mM Tris-acetate, 10 mM Mg acetate, 50 mM K acetate, 1 mM DTT, pH 7.8; native PAGE in 0.5x TBE running buffer; 37 C for the tac and slyD template reactions, otherwise temperature not stated", "conditions": "protein: native;recombinant; tags: ;; chain copies: 2;1;1;1;1; label: 5'-32P"}, "[2]": {"target": "RNA polymerase core enzyme (alpha2 beta beta' omega);RapA (Escherichia coli;Escherichia coli, UniProt P0A7Z4;P0A8V2;P0A8T7;P0A800;P60240 1-329;1-1342;1-1407;1-91;1-968, |)", "assay": "EMSA; 160 nM core, RapA titration; shifts to single-copy core-RapA-DNA complex; EMSA buffer D (1x): 20 mM Tris-acetate, 10 mM Mg acetate, 50 mM K acetate, 1 mM DTT, pH 7.8; native PAGE in 0.5x TBE running buffer; 37 C for the tac and slyD template reactions, otherwise temperature not stated", "conditions": "protein: native;recombinant; tags: ;; chain copies: 2;1;1;1;1; label: 5'-32P"}}}
{"binder": "CGCGCCAACAGCGACATCAAATTTGTCGCC (mixed)", "note": "[short DNA probe (Fig 2E)]", "values": [{"measurement": "binding result", "setting": "[1]", "result": "binds"}, {"measurement": "binding result", "setting": "[2]", "result": "binds"}]}
